Source: US20130011412A1

T1: recombinant human lymphotoxin-α homotrimer (human LTα3) (human) (UniProt P01374)
T1 sequence (looked up): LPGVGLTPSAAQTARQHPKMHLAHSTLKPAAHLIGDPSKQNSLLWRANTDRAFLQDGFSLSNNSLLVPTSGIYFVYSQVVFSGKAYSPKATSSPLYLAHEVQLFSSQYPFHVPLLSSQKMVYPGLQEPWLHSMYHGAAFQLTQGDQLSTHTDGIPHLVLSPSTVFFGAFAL


Molecular target: T1, recombinant human lymphotoxin-α homotrimer (human LTα3) (human)
Test: plate-based ELISA against LTα

Binder	relative binding (EC50 of the variant / EC50 of version 5)
3F12 version 8 (3F12.v5 with G95A, CDR-H3) (antibody, IgG1, V domains shown) VH: EVQLVESGGGLVQPGGSLRLSCAASGYTFSSYWIEWVRQAPGKGLEWVGEISPGSGSTNYNEEFKGRATFSADNSKNTAYLQMNSLRAEDTAVYYCADAYHGYWGQGTLVTVSS VL: DIQMTQSPSSLSASVGDRVTITCKSSQSLLYSTNQKNFLAWYQQKPGKAPKLLIYWASTRDSGVPSRFSGSGSGTDFTLTISSLQPEDFATYYCQQYYSYPRTFGQGTKVEIK	> 100
3F12 version 10 (3F12.v5 with H100A, CDR-H3) (antibody, IgG1, V domains shown) VH: EVQLVESGGGLVQPGGSLRLSCAASGYTFSSYWIEWVRQAPGKGLEWVGEISPGSGSTNYNEEFKGRATFSADNSKNTAYLQMNSLRAEDTAVYYCADGYAGYWGQGTLVTVSS VL: DIQMTQSPSSLSASVGDRVTITCKSSQSLLYSTNQKNFLAWYQQKPGKAPKLLIYWASTRDSGVPSRFSGSGSGTDFTLTISSLQPEDFATYYCQQYYSYPRTFGQGTKVEIK	> 100
